The nature of this data set: soluble fraction after stress (log2 fold change); higher = more stays soluble; pooled small domains, quantitative proteomics. As to conditions: stress: 50 degC. A digest of the protocol: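 After stress at 50°C, the amount of each protein still soluble was measured. This was done on pooled custom libraries of small protein domains, using high-throughput quantitative proteomics. The figure given is a base-two log fold change and stands for aggregation propensity, with higher values meaning more protein stays in solution.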
As to “HMTTTFGWENLVGEKGIAATDLHPSGWVTVKDQRVFVVSEGTFIEEGKEVEIMNVDGNRIVVREFKN”, the “soluble fraction (log2)” value was determined as 0.0515.

On to “HMETTVPNVLNHNISTGEILLKENNLNFRIQYIPSNKDEAVGTIINSVPTSGEKVKFGTVVDLKVL”, for which the “soluble fraction (log2)” value is 0.0465.

In the case of “HMESKKKTYTVKSGDTLVSILKREGVPQELIFKDYLGLFLELNPQISDINKLRVGQEIVLPVPG”, the “soluble fraction (log2)” value came to 0.0119.

Regarding “HMPESFSEMQKRTGVGEFSDDALSAKYVDSIDADVMSLDEYIMKVRGISLDDLEAERALRAR”, the “soluble fraction (log2)” value worked out at 0.0325.

As to “HMDIKDRSGVTIDESNEAQQESIIRESWAEQKISGNVDNYIAYLKANGMLLETAKIELAALQEKDASLRE”, the “soluble fraction (log2)” value turned out to be 0.0421.

Take “HMQKKYLAVKEYLLEQINSGAYQPDEPIPPEREMAAMLGVNRMTLRRAVEELMYEGLLIRKKGSGTFLTK”: the “soluble fraction (log2)” value is -1.52.

For “HMYYIITNGKYWVIENPIRPGEYMESTKSSNAKQFTFKQAKNLLNARSKKLGWIRNGYSMVGED”, the “soluble fraction (log2)” value was -2.22.

As to “HMKDASEFLGAKGKTITPLRPTGAAVINGEKVDVLAEGEFIPKNAEIVVIKVEGSKIIVRNANN”, the “soluble fraction (log2)” value came out at 0.143.

As to “HMIQNTGMMESGDSIRGMALDAGFPLLMVVGYRGWTRKGNTPDSAAVYTEPFLNAFRLNYYLVEHDE”, the “soluble fraction (log2)” value came to 0.309.

For “HMDLVESYDLKIIYTSELINLLIDSSRLEEALNLFKDLKDEIDDVENLGFSAKNNLDYMESKLLHLG”, the “soluble fraction (log2)” value was -1.83.

Turning to “HMYPDNEQTLSKLAFEFFKKRNIPISQSNINQIVTKSLGDRENLYNELLKIENFSTSGKKLTDNVIKKLIN”, the “soluble fraction (log2)” value was 0.00831.

For the sequence “HMHETMGQIIKRLRKERGLTQESLAERLGVTFQAVSKWETDAGMPDVSQIVPLANAFGVRTDVLFGLEGRD”, the “soluble fraction (log2)” value was -0.111.

With “HMVTFDEISQSLVRDVAARRSLSVQTLHAMVDRYNAGSSINAVANQYGIDRLKLREILIELGVHVAT”, the “soluble fraction (log2)” value is 0.159.

Regarding “HMPSLNDRPDDVLYLFSYFLQSFSHRQVSLPKILKKALIQHDWWGNIRELHSVALRYYIFGDTLNGAYDSL”, the “soluble fraction (log2)” value was -1.3.

Regarding “HMDNPPDRAEIEQMLKDAGLTPEADAMAALSDLARTLDPGDFRQTLEKITLYKLGDSTPIGLDDIAAGAP”, the “soluble fraction (log2)” value is -0.0256.

Consider “HMNLSAREWTSADGSRTFQGELTGFQDGKVKVRRSDGKSLVFAIELLSESDQQFIKTNQLVIAKKDED”, for which the “soluble fraction (log2)” value was 0.161.

With “HMSYTYPVARLNHIKGKWYVLVSVPAHLRHLFPNQRDLRRSTGTDDESLAKRKQHALAQEIYDLFD”, the “soluble fraction (log2)” value was -0.468.

Consider “HMRQIMIIVLKSTATKEDSLLFKNKLEQEYGVKVNEWTGVESTVLGLIGDTTKIDIDYISAQDIVESVKRV”, for which the “soluble fraction (log2)” value amounted to 0.252.

“HMTDIKYLIADGNDIKHWDTASSSYVKVSELPLTSDKFKIYGDDIYHKERTGIIAASPILKIWSPSAE”: the “soluble fraction (log2)” value was determined as 0.369.

With “HMAIELTPRQLDIIELVRKHAPITGEQIAELLGVTRPSIRSDLGLLVMLGYIDAKPKVGYFAGPRM”, the “soluble fraction (log2)” value was -0.597.

Consider “HMSQQEAQLNSLVKIYESMKPKDAARIFDTLDMDVLLDVVMRMKEARSAAVLAEMTPDRAKEVTLQLAD”, for which the “soluble fraction (log2)” value is -0.61.

Turning to “HMGEPQAWNELIGNLLRQWEARQTGWTPARKREALDRVLGAADPAALYTRLQGLLKSWTQAMTDADA”, the “soluble fraction (log2)” value is -1.7.

“HMQALDETTVSRIRQKAAARNLLLKVLAGQLGVARPTLSNVLARREAPSAALAARIRAFLDSP”: the “soluble fraction (log2)” value was -0.894.

Regarding “HMYDESVFTGEYHYYYEKLSDDDKLIYRQIYAMMQKRMDGISLNTTDTDNVSRIQQFVLLDNPQF”, the “soluble fraction (log2)” value was -3.04.

With “HMVDPAFLAWQQKPENTWFGTDRRKTALAIAIAEEIRNDPANSNLVGAAFYARVAEETEETLN”, the “soluble fraction (log2)” value is -0.628.

For the sequence “HMLRDMIIQSYRYYTDKERNPRQVWNRMEADAFWEIIRDYEGYNGDGYVHTKIIPEMEALTVIEMDN”, the “soluble fraction (log2)” value is -1.62.

For “HMIVIMKAKAEEEDVNRVIDTIQSLGLRTQLNLGAERMVVAVIGDISKIGEDNFFRIRAMKGVENTVFVSK”, the “soluble fraction (log2)” value was -0.396.

Regarding “HMSAMSPTEVGERLRLAREAVRMTQKQAADAISVARTTLVAIEQGQRRVRIDELQQLAKTYGVSVNAILR”, the “soluble fraction (log2)” value was -0.757.

Regarding “HMDTPPGLSPEEQAIIDIITTRGDATINELTASIDIPTPRLMGMLVDMEFRSLIAAIPGGRYRI”, the “soluble fraction (log2)” value was -1.16.

On to “HMDELPKDILRSFGLPDKPWAMELLRNLRRDGFALDGETARAYAEMAAMKPPRTDARQWMTAADVAYRRG”, for which the “soluble fraction (log2)” value was -0.151.

In the case of “HMNSLPFSNFMNEVEAGRVVEVKIQGNNISGVLANGKTFSTYSPNYPELVEKLSSNGVSIVATPQ”, the “soluble fraction (log2)” value stood at 0.153.

On to “HMRLSDSEFESIENAIKEKLENSALTADVLVKELSFDEDKIWKVIRWLEDAEKISEDEAGTLLWKPR”, for which the “soluble fraction (log2)” value is -0.22.

With “HMSNYLKSVEVFDPITNKWSYVSAMKVRRGYVAVVATMDRLYAIGGYDGENYLSTVEMYNPDTN”, the “soluble fraction (log2)” value came out at 0.0631.

Consider “HMKKEETEAEELEEKFTSAQIKQAYGILNDPRYKQGNYSGAVNVINKIAPGLADHPDVKNALKRANEEL”, for which the “soluble fraction (log2)” value came out at 0.0375.

Take “HMKGPLKDLGPDPVTGKSILVKDGKFGTYVTDGETNATLRRGDIVELLTLERGMELLAEKRARATQ”: the “soluble fraction (log2)” value is 0.151.

Consider “HMSFGWELYKGKEGIADTDLHPSGWIRIADKRVFAVSEGEFIEKGLEIIVLSVDGNRIVVRELK”, for which the “soluble fraction (log2)” value is -1.39.

Turning to “HMVKDLEIETIRLNNLLASDAEEVLKSLGGAKPTYKAVAVPGSNSLVIEGTKADLIKLKSIINALEDGS”, the “soluble fraction (log2)” value turned out to be 0.0941.

Turning to “HMVAGHLQEKKGYFYMVLTYRDHEGKRKSKWLPTGLTIKGNKKRAQDLLQDARKNFVPDIPT”, the “soluble fraction (log2)” value was -1.32.

Take “HMFDLDIEQIANDLKHGVMPNLYGLSLQDALYLLEAKGIRVKVAGSGSVVNQSIKTGAYVGSGSVLKLEL”: the “soluble fraction (log2)” value was -1.26.

With “HMDVRLAKVYMLPANPYLRFIEFDDGTHGKFRAKPGKFGLGSVVKVKREDGDMYTLEGNYDGKDRL”, the “soluble fraction (log2)” value is -0.555.

Regarding “HMQMTTPQMVPLFTDLSVDDSASIIKDLERQAVPYQIKSDGAIIMVPKDKVTRLRMKLAESGLPK”, the “soluble fraction (log2)” value is 0.25.

With “HMDTETLIDKYQLNASEAAVLRFMDKNRDSLRDLGIRDVARASYVSTATIVNMAKKIGYSGYSELVFAYGS”, the “soluble fraction (log2)” value is -1.09.

For “HMATAEETTPLWARNRLSHAIFGPGSVTGEDERSFEVAFDNGDTLNFSKKSAHLYFTAMSSR”, the “soluble fraction (log2)” value was -0.0942.

“HMNKDEFLNELKSYLSILEDEEQADILEEYTQHIDMKISTGLSEAEAIRDFGNVSELAAQILEAY”: the “soluble fraction (log2)” value was -0.222.

With “HMKPDDDMLLKILTKLFIQKQFVINSKDIFQYILKNTNRTYENIINIVNRLDTLSIEKKRQLTIPLIKEI”, the “soluble fraction (log2)” value was -0.457.

Consider “HMDGLIRLNKLLATLGVESRRHAEEMIIAGRITVDGVTATEKGQKVRRGAVIKVDGVEVGPPP”, for which the “soluble fraction (log2)” value is -0.121.

On to “HMQEPNYQPLMQNIKSQDLEEVTRLLSLNDVKFKIDHRTGLLLVESSRVYEAKMKLAATGITD”, for which the “soluble fraction (log2)” value was -0.224.

As to “HMPAGWIPARIRLADYPQLRSLAWHVQGIDTLTPTEALDIYERNARHLDAQAMSAQEQDLLASLRLALS”, the “soluble fraction (log2)” value was -0.839.

Turning to “HMDTLESYVKRLEKLEGIADSFKGVSKAFALQAGREIRIMVESEKITDEEAVWLSKDIARRIENELEYPG”, the “soluble fraction (log2)” value is -0.378.

As for “HMDPTYYFNLYPNPSKDEVSLFTNFTGKINIEILDLAGKSILSDNPISTISLVSLKEGLYLVKVKS”, the “soluble fraction (log2)” value is -0.208.

Turning to “HMFSMKDFGQRLRQLRKERGLTQGDLARLAKIDIMQVSRYERGLGLPSLETAIALARVLETSTDLLFLG”, the “soluble fraction (log2)” value was -1.46.

In the case of “HMGLNEGLNEGQQKVIQHIQENEGIKVKEISLKLNMPIDTVDRHIRVLKNLNLIERRGSRKTGGYFISN”, the “soluble fraction (log2)” value is -0.266.

With “HMAQKQLYIAGTDYTKNSTSQLVLAYFPAKPSSIKIFFDGIYQNKDKWSLFGKTIIFGLPISSNAVEVHYE”, the “soluble fraction (log2)” value is -2.1.

As to “HMTHAISKTYAVTGEQLKNGFTLTHTFANGSTRRVDVYPGSRSGKVIAVRNTTDDTTEWIRIVEG”, the “soluble fraction (log2)” value was 0.0444.

For “HMSTSIADNSSITYKVRKGDSLASIAKRHGVNINDVMRWNSVITKASQIQPGDMLTLYVRDS”, the “soluble fraction (log2)” value was determined as 0.026.

As to “HMGESYQIKDGELLVDIAQRVKPAGMTLRQTINALVAANPRAFRNGNPDLMYRGATLTIPDGDTLRRLAH”, the “soluble fraction (log2)” value is 0.131.

As to “HMSQNVSFTVDSGQAGLRLDVFLSQADPAFSRSQIKYAIEEGDVTVNGKEPKVSQHLKDGDIVELHLE”, the “soluble fraction (log2)” value was -0.0973.

As to “HMQVFDSNEIDEVVKKVIENNPQAVADFKKGKSNALQFLAGQVMRETKGRFNPNVVQERIRLLLT”, the “soluble fraction (log2)” value amounted to 0.458.

As for “HMGAQKITIPDFSNQEATQVYAELKNMGLEYTESRMNHPSIASGYVIKTEPTKGSEVKAGTTVTVYVSLG”, the “soluble fraction (log2)” value was -0.0535.

In the case of “HMSLLTIDELSQATGVSVRTLRYYVSSGVLDKPTGETRNARYGTHHLDQVRNIKKLQEEGLTLNRILEIKK”, the “soluble fraction (log2)” value was -1.65.

As for “HMDKSPMIGTAEYEGVLYWRQTKDNGATWEWITDKNGDKMPVSGPAPAVGIDKDGYWTVNGESTGVLAKD”, the “soluble fraction (log2)” value is 0.168.

For “HMLDLPEISARIMEVFETKDRATISELSKLTGTNINTIKKHLSSLVENNYLIKHGKTRGAWYTKST”, the “soluble fraction (log2)” value is -0.104.

For “HMSEEQLKAFLEKVQGDTSLQEKLKAAADANAVVEIAKEAGFSISADDLKNAQSELSEEELE”, the “soluble fraction (log2)” value was -0.0697.

Consider “HMVDIEQAEFLSRQFDLLLARLDDPTIEWQDIADIRSEYTGENEHRDTIRKGSKLFYEYLQAGWIKN”, for which the “soluble fraction (log2)” value was -0.748.

As for “HMDPSKMKIDELEIATRTATALADGGIKSVAGLIRKSASALKELDGVGDKAIAEITEALEKLGLELKG”, the “soluble fraction (log2)” value came out at 0.0501.

For “HMRTVAERYGLTAGQWRVLELLTQGKTNRQIAEMLDVTEGTVKIHVSAIFKAMKVTNRTQALLLAKKH”, the “soluble fraction (log2)” value was -0.558.

As for “HMDSINGEASISRELHGTRFDQAAAILFPEFSRSRLQAWIGAGALTLDGQTARAKDKVTQGQHLVLAAAVE”, the “soluble fraction (log2)” value was -0.0684.

In the case of “HMVELNDNEKIVYDILKETEKIHIDELTAKVQLTQSILSGALVQMEMKGMIVSLPGKMYKLL”, the “soluble fraction (log2)” value was -0.132.

In the case of “HMEAKQMDAWIVSEAKRQGGKIEPAAAYELSRHTATDTSIASQEIAKLLMYVDFKRPVTREDVVELVSA”, the “soluble fraction (log2)” value was determined as 0.176.

For the origin of these results see the domain aggregation screens of Martell et al. (2025).
